# Experimental data published in patent US20160184454A1, “RAB7L1 INTERACTS WITH LRRK2 TO MODIFY INTRANEURONAL PROTEIN SORTING AND PARKINSON'S DISEASE RISK” (THE TRUSTEES OF COLUMBIA UNIVERSITY IN THE CITY OF NEW YORK, priority 2013, published 2016).
# B1: PM20D1: PARK16 locus gene overexpression vector (protein, UniProt Q6GTS8 26-502, looked up)
# N-fatty-acyl-amino acid …: MGPRSGEHQRASRIPSQFSKEERVAMKEALKGAIQIPTVTFSSEKSNTTALAEFGKYIHKVFPTVVSTSFIQHEVVEEYSHLFTIQGSDPSLQPYLLMAHFDVVPAPEEGWEVPPFSGLERDGIIYGRGTLDDKNSVMALLQALELLLIRKYIPRRSFFISLGHDEESSGTGAQRISALLQSRGVQLAFIVDEGGFILDDFIPNFKKPIALIAVSEKGSMNLMLQVNMTSGHSSAPPKETSIGILAAAVSRLEQTPMPIIFGSGTVVTVLQQLANEFPFPVNIILSNPWLFEPLISRFMERNPLTNAIIRTTTALTIFKAGVKFNVIPPVAQATVNFRIHPGQTVQEVLELTKNIVADNRVQFHVLSAFDPLPVSPSDDKALGYQLLRQTVQSVFPEVNITAPVTSIGNTDSRFFTNLTTGIYRFYPIYIQPEDFKRIHGVNEKISVQAYETQVKFIFELIQNADTDQEPVSHLHKL
# B2: RAB3A: Rab family member expression vector (protein, UniProt P20336 1-220, looked up)
# Ras-related protein Rab-3A: MASATDSRYGQKESSDQNFDYMFKILIIGNSSVGKTSFLFRYADDSFTPAFVSTVGIDFKVKTIYRNDKRIKLQIWDTAGQERYRTITTAYYRGAMGFILMYDITNEESFNAVQDWSTQIKTYSWDNAQVLLVGNKCDMEDERVVSSERGRQLADHLGFEFFEASAKDNINVKQTFERLVDVICEKMSESLDTADPAVTGAKQGPQLSDQQVPPHQDCAC
# B3: Rab7WT: TH-driven Drosophila Rab GTPase transgene, wild-type Rab7 (protein, UniProt O76742 1-207, looked up)
# Ras-related protein Rab7: MSGRKKSLLKVIILGDSSVGKTSLMNQYVNKRFSNQYKATIGADFCTKEVVVNDRVVTMQIWDTAGQERFQSLGVAFYRGADCCVLVYDVTAPNSFKNLDSWRDEFLIQASPRDPDHFPFVVLGNKVDLDNRQVSTRRAQQWCQSKNDIPYYETSAKEGINVEMAFQVIAKNALELEAEAEVINDFPDQITLGSQNNRPGNPDNCQC
# B4: RAB5A: Rab family member expression vector (protein, UniProt P20339 1-215, looked up)
# Ras-related protein Rab-5A: MASRGATRPNGPNTGNKICQFKLVLLGESAVGKSSLVLRFVKGQFHEFQESTIGAAFLTQTVCLDDTTVKFEIWDTAGQERYHSLAPMYYRGAQAAIVVYDITNEESFARAKNWVKELQRQASPNIVIALSGNKADLANKRAVDFQEAQSYADDNSLLFMETSAKTSMNVNEIFMAIAKKLPKNEPQNPGANSARGRGVDLTEPTQPTRNQCCSN
# B5: NUCKS1: PARK16 locus gene overexpression vector (protein, UniProt Q9H1E3 1-243, looked up)
# Nuclear ubiquitous casein and …: MSRPVRNRKVVDYSQFQESDDADEDYGRDSGPPTKKIRSSPREAKNKRRSGKNSQEDSEDSEDKDVKTKKDDSHSAEDSEDEKEDHKNVRQQRQAASKAASKQREMLMEDVGSEEEQEEEDEAPFQEKDSGSDEDFLMEDDDDSDYGSSKKKNKKMVKKSKPERKEKKMPKPRLKATVTPSPVKGKGKVGRPTASKASKEKTPSPKEEDEEPESPPEKKTSTSPPPEKSGDEGSEDEAPSGED
# B6: SLC45A3: PARK16 locus gene overexpression vector (protein, UniProt Q96JT2 1-553, looked up)
# Solute carrier family 45 …: MVQRLWVSRLLRHRKAQLLLVNLLTFGLEVCLAAGITYVPPLLLEVGVEEKFMTMVLGIGPVLGLVCVPLLGSASDHWRGRYGRRRPFIWALSLGILLSLFLIPRAGWLAGLLCPDPRPLELALLILGVGLLDFCGQVCFTPLEALLSDLFRDPDHCRQAYSVYAFMISLGGCLGYLLPAIDWDTSALAPYLGTQEECLFGLLTLIFLTCVAATLLVAEEAALGPTEPAEGLSAPSLSPHCCPCRARLAFRNLGALLPRLHQLCCRMPRTLRRLFVAELCSWMALMTFTLFYTDFVGEGLYQGVPRAEPGTEARRHYDEGVRMGSLGLFLQCAISLVFSLVMDRLVQRFGTRAVYLASVAAFPVAAGATCLSHSVAVVTASAALTGFTFSALQILPYTLASLYHREKQVFLPKYRGDTGGASSEDSLMTSFLPGPKPGAPFPNGHVGAGGSGLLPPPPALCGASACDVSVRVVVGEPTEARVVPGRGICLDLAILDSAFLLSQVAPSLFMGSIVQLSQSVTAYMVSAAGLGLVAIYFATQVVFDKSDLAKYSA
# B7: Rab7L1WT: TH-driven wild-type Drosophila RAB7L1 orthologue (termed lightoid) transgene (protein)
# chain: MGSRDHLFKVLVVGDAAVGKTSLVQRYSQDSFSKHYKSTVGVDFALKVLQWSDSEMVRLQLWDIAGQERFTSMTRLYYRDASACVIMFDVTNATTFSNSQRWKQDLDSKLTLPSGEPVPCLLLANKSDLSPWAVSRDQIDRFSKENGFTGWTETSVKENKNINEAMRVLVEKMMNNSREDIMSSSTQGNYINLQTKPSPGWTCC
# modifications: left off: large carriers
# notes: TH-driven wild-type Drosophila RAB7L1 orthologue (termed lightoid) transgene
# What was measured:
# [1] = tested on: Lrrk mutant (−/−) Drosophila; test: Negative geotaxis analysis of lrrk mutant Drosophila; assay type: in vivo; conditions: pan-neuronal expression in lrrk mutant (−/−) Drosophila
# Method: FIG. 11 is a bar graph showing a negative geotaxis analysis of lrrk mutant Drosophila. […] Bars represent Mean times to climb 10 cm upward in a cylinder are represented. Error bars are SEM. ***: p<0.001, for comparison with the non-transgenic group by ANOVA (df=3, F=13.14) followed by Tukey HSD post hoc analysis.
# Drosophila were cultured by standard methods on yeast-cornmeal-agar medium at 25° C. Wild-type and mutant G2019S LRRK2 transgenes were expressed specifically in catecholaminergic neurons, including dopamine neurons, using the Gal4-UAS system described (Fischer et al., 1988). Driver lines used include OK6 (motor neuron), Gmr (eye), G14 (muscle), TH (dopaminergic neuron), and DDC (dopaminergic neuron). A UAS-GFP::nuclear localization sequence (NLS) marker was used to visualize nucleii of cells in which trangenes were expressed (stock 4775 (w 1118; P{UAS-GFP.nls}14), Drosophila Stock Center, Bloomington, Ind.). For the RAB screen, UAS-LRRK2 (G2019S) transgenic Drosophila, crossed with the TH-Gal4 driver, were screened against a UAS-Rab transgenic library (Zhang et al., 2007). Crossings were typically performed using standard balancer chromosome techniques. […] For mortality curves, transgenic Drosophila surviving through adult metamorphosis were counted daily, from the day of pupal eclosion onward. Locomotion deficits were assessed by methods know in the art.
# [2] = tested on: Drosophila model of LRRK2 G2019S neurodegeneration; test: Drosophila adult survival: Rab modifier screen of the LRRK2 G2019S early adult lethality phenotype; assay type: in vivo; conditions: for Average adult lifespan: TH-driven Rab GTPase transgene co-expressed with LRRK2 G2019S in Drosophila dopamine neurons, days post-eclosion; for rescue of the LRRK2 G2019S premature mortality phenotype (survival): co-expression with LRRK2 G2019S in Drosophila dopamine neurons
# Source text: To pursue potential mechanisms of LRRK2 pathology in vivo, a Drosophila model was established. […] Dopamine neuron-selective expression of human familial PD-associated G2019S-mutant LRRK2—using either a tyrosine hydroxylase (TH) (Friggi-Grelin et al., 2003) or dopa decarboxylase (DDC) promoter-Gal4 driver (Fischer et al., 1988)—induced premature mortality of young adult animals (FIG. 4A; nontransgenic mean lifespan 37.1 days+/−1; G2019S mean lifespan 4.8 days+/−0.2), akin to previous reports (Ng et al., 2009).
# Subsequently a targeted screen for potential genetic modifiers of the LRRK2 G2019S mutant phenotype was performed, based on the idea that LRRK2 may modify a specific intracellular trafficking process, and focused on RAB7L1. A series of 16 Drosophila Rab genes, (see Table 4; out of 33 identified in Drosophila), or CA or IN forms of these (Zhang et al., 2007), were investigated.
# Briefly, LRRK2 G2019S mutants were mated with a panel of previously described transgenic Drosophila strains that allow for overexpression of wild-type (WT) or constitutively active (CA), forms of the Rab genes (Zhang et al., 2007), using a standard balancer chromosome-based mating scheme. Co-expression of a majority of these Rab transgenes with LRRK2 within dopamine neurons produced no effect on the survival of animals co-expressing LRRK2 G2019S (FIG. 4A; Table 4).
# Drosophila were cultured by standard methods on yeast-cornmeal-agar medium at 25° C. Wild-type and mutant G2019S LRRK2 transgenes were expressed specifically in catecholaminergic neurons, including dopamine neurons, using the Gal4-UAS system described (Fischer et al., 1988). Driver lines used include OK6 (motor neuron), Gmr (eye), G14 (muscle), TH (dopaminergic neuron), and DDC (dopaminergic neuron). A UAS-GFP::nuclear localization sequence (NLS) marker was used to visualize nucleii of cells in which trangenes were expressed (stock 4775 (w 1118; P{UAS-GFP.nls}14), Drosophila Stock Center, Bloomington, Ind.). For the RAB screen, UAS-LRRK2 (G2019S) transgenic Drosophila, crossed with the TH-Gal4 driver, were screened against a UAS-Rab transgenic library (Zhang et al., 2007). Crossings were typically performed using standard balancer chromosome techniques. To generate strains in which the homozygous LRRK2 transgene and another (Driver or marker) transgene lay on the same chromosome (III), genetic recombination was using standard techniques. Adult Drosophila mushroom bodies were dissected as in (Wu and Luo, 2006) and imaged immediately, without fixation, using a Zeiss LSM510 Meta confocal fluorescent microscope. For mortality curves, transgenic Drosophila surviving through adult metamorphosis were counted daily, from the day of pupal eclosion onward. Locomotion deficits were assessed by methods know in the art.
# [3] = tested on: rat primary cortical neurons; test: Neurite length assay in transfected primary cortical neuron cultures; assay type: cell-based; conditions: co-transfection with LRRK2 G2019S (0.5 μg/well); test vector 1 μg/well
# Source text: As 5 candidate genes are present within the PARK16 locus (SLC45A3, NUCKS, RAB7L1, SLC41A1, and PM20D1), each of the genes were experimentally screened for a functional interaction with LRRK2 (FIG. 2A). A previously-described primary rat neuron in vitro culture model was used, in which transient expression of familial PD-associated LRRK2 G2019S or R1441C mutant alleles leads to a marked reduction in neurite process length (MacLeod et al., 2006). […] RAB7L1 is a small cytosolic GTPase, structurally distinct from RAB7 despite its name (also known as RAB29) (Shimizu et al., 1997). […] But the function of RAB7L1 in CNS neurons remains unknown. Orthologues of RAB7L1 in other organisms, including C. elegans Glo-1 and Drosophila melanogaster Lighloid, have been implicated in trafficking to lysosome-related organelles (Hermann et al., 2005) and in the regulation of neurite process length (Grill et al., 2007), reminiscent of LRRK2 mutant phenotypes (MacLeod et al., 2006). Thus this gene was of particular interest.
# Sprague-Dawley rat or mouse PI primary dissociated cortical cultures were prepared and transfected essentially as described (Xia et al., 1996) with the following modifications: cells were plated at high density, approximately 250,000 cells/cm2, in 24-well plates with 500 ul medium/well. Culture medium used for plating cells was Neurobasal-A supplemented with 2% B-27 and 10% FBS. At 1 day after plating, medium was changed to reduced serum (1% FBS+added antimitotic agents: 70 μM uridine and 25 μM 5-fluorodeoxyuridine) and replaced weekly thereafter; for transfections no DMSO was added to the transfection mixture, cells were not subjected to glycerol shock, and a total of 3 μg plasmid DNA was used per well. Cells were fixed in 4% PFA and immunostained with mouse α-RAB7L1 (Santa Cruz, 1:100), and rabbit monoclonal α-LRRK2 (Michal J. Fox Foundation MJFF4, 1:100), then with appropriate fluorescent secondaries (Jackson, 1:1000-2000). Neurite length and neurite puncta (defined as swellings greater than 2 um in diameter) were counted for at least 20 neurons per condition. Mean puncta number per neuron was normalized to total average neurite length versus wild-type LRRK2 transfected cells. Fluorescent microscopy was performed using a Nikon TE 2000-S microscope and a Zeiss LSM510 Meta confocal microscope. Images were analyzed using Image-Pro Plus (Mediacybernetics) software version 5.1.0.20.
molecule,measurement,setting,value
G2019S: human familial PD-associated G2019S-mutant LRRK2 transgene,defective negative geotaxis (time to climb 10 cm),[1],can be rescued
same,mean lifespan,[2]; dopamine neuron-selective expression of the LRRK2 transgene alone (TH or DDC Gal4 driver),4.8 days
SLC41A1: PARK16 locus gene overexpression vector,LRRK2 mutation-induced neurite length phenotype,[3],failed to rescue
human LRRK2 WT: wild-type human LRRK2 transgene,defective negative geotaxis (time to climb 10 cm),[1],can be rescued
same,phenotype on transgenic expression,[2]; dopamine neuron-selective expression of the LRRK2 transgene alone,did not lead to a discernible phenotype
B1,LRRK2 mutation-induced neurite length phenotype,[3],failed to rescue
B2,LRRK2 mutation-induced neurite length phenotype,[3],failed to rescue the phenotype
B3,mean lifespan,[2]; Rab transgene co-expressed with LRRK2 G2019S in dopamine neurons,14.3 days
same,Average adult lifespan,[2],10.2 days
same,rescue of the LRRK2 G2019S premature mortality phenotype (survival),[2],statistically significant—albeit much weaker—survival benefit
B4,LRRK2 mutation-induced neurite length phenotype,[3],failed to rescue the phenotype
B5,LRRK2 mutation-induced neurite length phenotype,[3],failed to rescue
B6,LRRK2 mutation-induced neurite length phenotype,[3],failed to rescue
B7,Average adult lifespan,[2],23.3 days
same,rescue of the LRRK2 G2019S premature mortality phenotype (survival),[2],dramatic rescue
